Results from the supplement of paper PMC7877785.
± gives the uncertainty stated by the source.

Test: self-splicing fitness, log relative to wild type (ln ratio); higher = more splicing; Tetrahymena group I intron in knt gene, E. coli kanamycin selection, DiMSum; sequences stand for … in CUCUCU…GGAGGGAAAAGUUAUCAGGCAUGCACCUGGUAGCUAGUCUUUAAACCAAUAGAUUGCAUCGGUUUAAAAGGCAAGACCGUCAAAUUGCGGGAAAGGGGUCAACAGCCGUUCAGUACCAAGUCUCAGGGGAAACUUUGAGAUGGCCUUGCAAAGGGUAUGGUAAUAAGCUGACGGACAUGGUCCUAACCACGCAGCCAAGUCCUAAGUCAACAGAUCUUCUGUUGAUAUGGAUGCAGUUCACAGACUAAAUGUCGGUCGGGGAAGAUGUAUUCUUCUCAUAAGAUAUAGUCGGACCUCUCCUUAAUGGGAGCUAGCGGAUGAAGUGAUGCAACACUGGAGCCGCUGGGAACUAAUUUGUAUGCGAAAGUAUAUUGAUUAGUUUUGGAGUACUCGUGGUCG
In short: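 Six replicate transformations of E. coli BL21(DE3) with a pET-22b(+) library were grown overnight at 37°C or 30°C. The library randomised all eight P1ex-region intron nucleotides, the intron lying in the knt kanamycin-resistance gene, and plates were LB agar with or without 25 μg/mL kanamycin plus 100 μg/mL carbenicillin, 50 μM IPTG and 0.2% rhamnose. Pooled colonies were amplicon-sequenced on an Illumina HiSeq 2500, and fitness is the DiMSum error-weighted combination of wild-type-normalised replicate fold changes, kanamycin versus none.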

| Sequence | self-splicing fitness (ln) (30 °C) | self-splicing fitness (ln) (37 °C) |
| --- | --- | --- |
| CACUAGCAAUAUUACGACGA | -2.06 ± 0.16 | -1.16 ± 0.17 |
| AACCAGCAAUAUUACGGCAA | -0.217 ± 0.07 | -0.0314 ± 0.082 |
| GUAUAGCAAUAUUACGCCCA | -1.33 ± 0.15 | -0.76 ± 0.17 |
| UGGGAGCAAUAUUACGAUUA | -2.17 ± 0.22 | -2.1 ± 0.29 |
| CGUGAGCAAUAUUACGGAUG | -1.55 ± 0.075 | -0.983 ± 0.094 |
| AACUAGCAAUAUUACGUUAA | -2.93 ± 0.24 | -1.71 ± 0.23 |
| UUAAAGCAAUAUUACGCGGU | -3.37 ± 0.18 | -0.344 ± 0.13 |
| AAGAAGCAAUAUUACGAGUC | -2.53 ± 0.23 | -1.51 ± 0.25 |
| AACUAGCAAUAUUACGGUAA | -1.49 ± 0.094 | -0.267 ± 0.095 |
| CUGCAGCAAUAUUACGUGGU | -3.34 ± 0.18 | -3.71 ± 0.31 |
| AGCGAGCAAUAUUACGAGCA | -0.722 ± 0.11 | -0.526 ± 0.11 |
| AAACAGCAAUAUUACGGUCG | -1.07 ± 0.059 | -0.526 ± 0.082 |
| GUAGAGCAAUAUUACGAUUA | -0.625 ± 0.1 | -0.396 ± 0.14 |
| CCACAGCAAUAUUACGCAAG | -1.34 ± 0.064 | -0.406 ± 0.072 |
| AUGGAGCAAUAUUACGUAGG | -3.11 ± 0.17 | -2.76 ± 0.23 |
| CGAUAGCAAUAUUACGUUGC | -4.22 ± 0.34 | -3.8 ± 0.22 |
| AACUAGCAAUAUUACGCAGG | -2.99 ± 0.15 | -1.66 ± 0.14 |
| ACAAAGCAAUAUUACGUACC | -1.13 ± 0.1 | -0.353 ± 0.12 |
| GCUAAGCAAUAUUACGACGU | -0.0363 ± 0.17 | 0.155 ± 0.19 |
| UUAGAGCAAUAUUACGUGGU | -3.98 ± 0.43 | -2.61 ± 0.39 |
| CGUUAGCAAUAUUACGGUUU | -3.84 ± 0.34 | -2.44 ± 0.21 |
| GGCUAGCAAUAUUACGUGAG | -1.21 ± 0.087 | -0.194 ± 0.092 |
| GUUAAGCAAUAUUACGGCAC | -0.637 ± 0.12 | 0.0416 ± 0.15 |
| AGGGAGCAAUAUUACGCGAA | -1.94 ± 0.4 | -1.48 ± 0.29 |
| AUUAAGCAAUAUUACGGCGU | -0.179 ± 0.073 | 0.712 ± 0.097 |

| Sequence | self-splicing fitness (ln) (30 °C) | self-splicing fitness (ln) (37 °C) |
| --- | --- | --- |
| UGUGAGCAAUAUUACGAAGU | -1.67 ± 0.32 |  |
| GACUAGCAAUAUUACGACGU | -0.558 ± 0.085 | 0.328 ± 0.099 |
| AUCAAGCAAUAUUACGGCAG | -1.58 ± 0.085 | -1.55 ± 0.12 |
| GUUCAGCAAUAUUACGCCCG | -1.59 ± 0.22 | -0.196 ± 0.28 |
| UUCAAGCAAUAUUACGGUUG | -2.96 ± 0.14 | -2.41 ± 0.18 |
| UGUGAGCAAUAUUACGAUUU |  | -2.06 ± 0.27 |
| GUGUAGCAAUAUUACGUGUA | -2.62 ± 0.14 | -1.22 ± 0.11 |
| AUCCAGCAAUAUUACGUGCG | -1.65 ± 0.078 | -0.875 ± 0.076 |
| CGACAGCAAUAUUACGUCGC | -3.71 ± 0.25 | -3.74 ± 0.33 |
| AUAAAGCAAUAUUACGGGGC | -3.6 ± 0.26 | -1.97 ± 0.22 |
| CCGUAGCAAUAUUACGUCCU | -3 ± 0.24 | -2.62 ± 0.3 |
| AUCUAGCAAUAUUACGGGCA | -1.25 ± 0.15 | -0.862 ± 0.18 |
| GGUCAGCAAUAUUACGACCA | -0.982 ± 0.16 | -0.657 ± 0.23 |
| CAGUAGCAAUAUUACGAACU | -1.4 ± 0.22 | -1.05 ± 0.17 |
| AGUCAGCAAUAUUACGCUAA | -0.794 ± 0.083 | -0.99 ± 0.083 |
| ACCAAGCAAUAUUACGCGUC | -3.45 ± 0.2 | -2.46 ± 0.22 |
| GCCCAGCAAUAUUACGGGCC | -3.22 ± 0.13 | -2.58 ± 0.26 |
| UACAAGCAAUAUUACGUUUA | -1.33 ± 0.07 | -0.605 ± 0.072 |
| UACCAGCAAUAUUACGGGCU | -2.89 ± 0.14 | -1.96 ± 0.19 |
| UCCUAGCAAUAUUACGCUAC | -2.35 ± 0.15 | -0.883 ± 0.3 |
| CGCAAGCAAUAUUACGCAGA | -2.26 ± 0.15 | -1.78 ± 0.16 |
| GUACAGCAAUAUUACGUAGC | -0.896 ± 0.19 | -2.29 ± 0.25 |
| AUCAAGCAAUAUUACGGCCG | -0.0854 ± 0.092 | -0.00151 ± 0.15 |
| ACAGAGCAAUAUUACGUUUG | -3.85 ± 0.25 | -3.07 ± 0.24 |
| CUGUAGCAAUAUUACGAUCG | 0.206 ± 0.16 | 0.548 ± 0.21 |

| Sequence | self-splicing fitness (ln) (30 °C) | self-splicing fitness (ln) (37 °C) |
| --- | --- | --- |
| GGACAGCAAUAUUACGCGUA | -0.744 ± 0.065 | -0.68 ± 0.073 |
| AGCUAGCAAUAUUACGGACU | 8.42e-05 ± 0.097 | 0.516 ± 0.12 |
| UACAAGCAAUAUUACGAACU | -1.48 ± 0.089 | -0.628 ± 0.1 |
| GCGGAGCAAUAUUACGCGUC | -3.26 ± 0.18 | -3.2 ± 0.25 |
| AAAUAGCAAUAUUACGCACC | -1.34 ± 0.21 | -0.223 ± 0.23 |
| ACUGAGCAAUAUUACGUGGA | -2.94 ± 0.2 | -2.88 ± 0.2 |
| GGGGAGCAAUAUUACGUGCU | -1.81 ± 0.16 | -2.14 ± 0.33 |
| GGGAAGCAAUAUUACGGCGC | -2.22 ± 0.1 | -1.1 ± 0.053 |
| UGUGAGCAAUAUUACGGUCC | -3.6 ± 0.48 | -2.09 ± 0.42 |
| AUCUAGCAAUAUUACGGCGG | -1.12 ± 0.083 | -1.15 ± 0.1 |
| CACAAGCAAUAUUACGACGG | -0.279 ± 0.071 | 0.557 ± 0.083 |
| GUUGAGCAAUAUUACGGUCA | -1.81 ± 0.26 | -2.45 ± 0.29 |
| UCCGAGCAAUAUUACGCACA | -3.21 ± 0.22 | -0.221 ± 0.13 |
| GCCGAGCAAUAUUACGAAGG | -3.25 ± 0.24 | -2.12 ± 0.49 |
| CAGAAGCAAUAUUACGAAAA | -4.31 ± 0.46 | -2.65 ± 0.21 |
| GGCUAGCAAUAUUACGUACU | -0.354 ± 0.077 | 0.312 ± 0.11 |
| UUGCAGCAAUAUUACGUAAG | -0.486 ± 0.089 | 0.527 ± 0.11 |
| AGCCAGCAAUAUUACGCGAG | -1.65 ± 0.13 | -1.29 ± 0.16 |
| UUGCAGCAAUAUUACGCUUC | -3.76 ± 0.35 | -2.76 ± 0.25 |
| GUGUAGCAAUAUUACGUUGC | -1.92 ± 0.22 | -2.28 ± 0.46 |
| GCGGAGCAAUAUUACGUUGA | -2.63 ± 0.32 | -2.31 ± 0.32 |
| CGUGAGCAAUAUUACGUUAC | -3.96 ± 0.43 |  |
| AGGUAGCAAUAUUACGGGGG | -3.715 ± 0.031 | -2.94 ± 0.044 |
| CUUUAGCAAUAUUACGUUGA |  | -3.01 ± 0.35 |
| UUCCAGCAAUAUUACGUACC | -2.05 ± 0.24 | -1.71 ± 0.31 |

| Sequence | self-splicing fitness (ln) (30 °C) | self-splicing fitness (ln) (37 °C) |
| --- | --- | --- |
| CAUGAGCAAUAUUACGUCGG | -2.94 ± 0.18 | -1.57 ± 0.21 |
| GAAGAGCAAUAUUACGAAAG | -4.13 ± 0.31 | -2.41 ± 0.18 |
| CUAUAGCAAUAUUACGUCAC | -3.4 ± 0.28 | -1.77 ± 0.31 |
| ACUUAGCAAUAUUACGGGUC | -3.35 ± 0.13 | -3.27 ± 0.2 |
| AUGGAGCAAUAUUACGGCUC | -2.53 ± 0.45 |  |
| GAGCAGCAAUAUUACGCGCU | -3.19 ± 0.38 | -1.9 ± 0.36 |
| AGAAAGCAAUAUUACGUGAC | -2.53 ± 0.32 | -1.65 ± 0.24 |
| UAUUAGCAAUAUUACGAACA | -0.315 ± 0.16 | 0.101 ± 0.14 |
| CCGCAGCAAUAUUACGACAG | -0.485 ± 0.063 | 0.0928 ± 0.088 |
| CUAUAGCAAUAUUACGCAGU | -3.51 ± 0.2 | -2.55 ± 0.27 |
| AGCUAGCAAUAUUACGUAGG | -3.29 ± 0.13 | -1.27 ± 0.13 |
| UCAAAGCAAUAUUACGGGGA | -0.69 ± 0.075 | -0.383 ± 0.085 |
| GGUAAGCAAUAUUACGUGAC | -1.4 ± 0.076 | -1.66 ± 0.12 |
| AGUCAGCAAUAUUACGUCUU | -0.994 ± 0.095 | -0.306 ± 0.11 |
| CAUCAGCAAUAUUACGUCCU | -3.78 ± 0.22 | -1.91 ± 0.22 |
| CAGUAGCAAUAUUACGCCAU | -0.742 ± 0.18 | -2.87 ± 0.47 |
| UUAGAGCAAUAUUACGGAAC | -4.11 ± 0.39 | -2.33 ± 0.37 |
| AGCAAGCAAUAUUACGCCGA | -0.81 ± 0.15 | -0.63 ± 0.17 |
| CGCCAGCAAUAUUACGCCAG | -0.963 ± 0.12 | -0.172 ± 0.15 |
| AGGGAGCAAUAUUACGUCGC | -1.42 ± 0.34 |  |
| CCAUAGCAAUAUUACGGCUU | -3.97 ± 0.31 | -2.19 ± 0.2 |
| AUUUAGCAAUAUUACGUUGC | -3.26 ± 0.41 |  |
